Experimental data taken from the DeepSol protein solubility set.

Assay: soluble on expression in E. coli; label from the status in PepcDB or PDB records

| Sequence | soluble on expression in E. coli |
| --- | --- |
| MGSSHHHHHHSSGRENLYFQGMQCNTSIEDGLDGGDITFPSYSPEAEAQNRFLPRSEFPSVRQLVISKQKSRRRREENVFVGKMEDVLVKWRPPASSHRGAIEAINGTHPYQLSTAQFNSRRSDPFGSTKRDESVRSIVESFTDWWKRNSKMFFRDEEEGVRTEHSASQDDQELQLFEEDLFSFHLSPNDMSTRNSEHQVQTPVLFPYEAPTRTKQNPAERKVIEIGDGEELSIYRDVYSNPIPVSYLDTLNLNHSMSVRQTQQQQQQRQQQQYVDSSSAFQCCTDSNWARIFFCHHD | soluble |
| MGSDKIHHHHHHMGSSGMGVDANGKPIKRQPTTNNNNKKAGNNSNNQKKGNNQNNKNNKNQNGGNRNQNRQHHQPPMMQMVPPFGPMGPGGPGGPGFMGPPNGNMNFFNGQNRRNGSGKDTMDHRLTMWDKELLEIT | not soluble |
| MDNEKLIREARRMEDVQQLKMQIPKPVDKKPRPPPSENNLKLISCEETCMDETLKNSSKPRMIYNKQLGRAESIDFDVPSLSYESSTFKKSNNSSGGALVLDNHYLINNDDGTVKKLPMKVYVKQRLEDGSLDVQLVFFDENSQKVMDISMLVNGKKIRNVQFCGKDGKLVN | not soluble |
| MADGQVHDELMMDQQQQQGVVPQQGDIHLSPIDKDLGDAALENNVRQYHLDGVVVSEGMKRMIIDLQRHWLSEYHASREKCLVELTEKLHQEFMMDQQKIRSELLQQFKDELEQTRADLENKHRENLKMESAKLNEKHKRELVASRKKQWCWSCDNEAIYHCCWNTAYCSVECQQGHWQTHRKFCRRKKGNNAPGAPSVPAPQQVGAPMPPQQQ | not soluble |
| MSLTTQLGLPDDIQACLFDLDGVVTRTAVVHAAAWKATFDTFLRERDGADFRPFTDSDYDQYVDGRPRADGVRSFLASRGVELPEGTPDDPPDARTVNGVGNRKNELLLEKIRTDGVEPYEGTLRYIDAVRAAGLATAIVSSSANTRDVLRSIDAERLFDVRIDGVVARERKLPGKPHPDTFLAAARDLGVEASRAAVFEDALAGMDAGRSGHFGYVVGVDRVGQTDALYAHGADRVVKDLAELGDHAEGHHHHHH | soluble |
| MGHHHHHHSHMEYHTMIRELILDGSLQLIQEGLKSGFLYPLFEKQDKGSKPITLPLDACSLSELCEMAKHLPSLNEMEHQTLQLVEEDTSVTEQDLFLRVVENNSSFTKVITLMGQKYLLPPKSSFLLSDISCMQPLLNYRKTFDVIVIDPPWQNKSVKRSNRYSYLSPLQIQQIPIPKLAAPNCLLVTWVTNRQKHLRFIKEELLSLLVCGGSC | not soluble |
| MKKVLIVFGTRPEAIKMAPLVQQLCQDNRFVAKVCVTGQHREMLDQVLELFSITPDFDLNIMEPGQTLNGVTSKILLGMQQVLSSEQPDVVLVHGDTATTFAASLAAYYQQIPVGHVEAGLRTGNIYSPWPEEGNRKLTAALTQYHFAPTDTSRANLLQENYNAENIFVTGNTVIDALLAVREKIHTDMDLQATLESQFPMLDASKKLILVTGHRRESFGGGFERICQALITTAEQHPECQILYPVHLNPNVREPVNKLLKGVSNIVLIEPQQYLPFVYLMDRAHIILTDSGGIQEEAPSLGKPVLVMRETTERPEAVAAGTVKLVGTNQQQICDALSLLLTDPQAYQAMSQAHNPYGDGKACQRIADILAK | not soluble |
| MDVADISKKQSILKQFEREGVKNVLFTDCLRQHDENVKKHPVIRCLMFQIVPLVSKLIESTSRFHREEERCYCLMVIGVPNVGKSSLINALRRTYLKKGKASKVGAEPGITKAVLTKIQVCERPIIHLLDTPGVLPPRIENIETGMKLALCGTVLDHLVGEDVIADFLLFSLNRLERFSYVEKYSLEEPCDDIQHVLKCIAVKLGKTRRVKAITGVGNITVQLPDYSAAAYDFIRAFRKGELGKVMLD | not soluble |
| MLRVVEVCWRESHMKVLAINSSPRMDKGNTALILNPFLEGMKEAGAEVELFYTKKLKISPCTGEFNCWLKTPGKCYQNDDMNILYPRIDAADVIVFATPVYVDGVTGQMKNFIDRMLPRVEPFVELRDGHCRHPVRGGPKALKFVLVSNCGFWEMDNFDSLLVFMKAFCKNASTEFAGALLRPHGEALSSMLEMGAPIDDVFEAAREVGRQLVKEGKMSQETLDIVSRELLPKEMYIQIANQTFRQCLESLDRLEHHHHHH | not soluble |
| LKVLKRFDIETDYGSAIIADTITGRIEYTVATGGCIFPEVSRTIQTLENMGASVFIASGDSRKFIERLGNIVGVQNKCLMPEAHHKLKRDLILNLKQDGYTVIMVGDASNDILAMEESDLSVITLQNGNVSKKALETAQIKIENISEI | not soluble |
| MGSDKIHHHHHHMKEVFDLRGRVALVTGGSRGLGFGIAQGLAEAGCSVVVASRNLEEASEAAQKLTEKYGVETMAFRCDVSNYEEVKKLLEAVKEKFGKLDTVVNAAGINRRHPAEEFPLDEFRQVIEVNLFGTYYVCREAFSLLRESDNPSIINIGSLTVEEVTMPNISAYAASKGGVASLTKALAKEWGRYGIRVNVIAPGWYRTKMTEAVFSDPEKLDYMLKRIPLGRTGVPEDLKGVAVFLASEEAKYVTGQIIFVDGGWTAN | soluble |
| MIDIIANIASILGFTMQMNDKFFAHGMNKEQADNEMLLLFLKQLSVKSKAIKEIHQKYHSLSNDFRLVAVFLTNPVIYEKIVTNRSRALRNALKESLQTPSARIAQTQLSAQLRPCFENLLVSIKDESHLSVEFSGINDCEMKAILRKILNAQKEIFQLHQQFCGIMKTIGSYPLGNWGDSEFDFIKTNQRVFISDFYSIIDYADIILMGYLDIYHCALNLK | not soluble |
| MTISTTSTPHDAVFKSFLRHPDTARNFINIHLPAPLRKLCDLTTLKLEPNSFIDEDLRQYYSDLLWSVKTQEGVGYIYVVIEHQSKPEELMAFRMMRYSIAAMQNHLDAGYKELPLVIPMLFYHGCRSPYPYSLCWLDEFAEPAIARKIYSSAFPLVDITVVPDDEIMQHRKMALLELIQKHIRQRDLLGLVDQIVSLLVTGNTNDRQLKALFNYVLQTGDAQRFRAFIGEITERAPQEKEKLMTIADRLREEGAMQGKHEEALRIAQEMLDRGLDRELVMMVTRLSPDDLIAQSH | not soluble |
| SNTTEILTSVDVLGTHSQTGTQQSNMYTSTQKTELEIDNKDSVTECSKDMKEDGLSFVDIVLSKAASALDEKEKQLAVANEIIRSLSDEVMRNEIRITSLQGDLTFTKKCLENARSQISEKDAKINKLMEKDFQVNKEIKPY | soluble |
| MGSDKIHHHHHHMRNTAVAEQPASVPAMSRLTRQRLHDTVVEYLRDYIVKGVLAPGVKLNERELCETLGISRTPLREAIKVLAAEGLIEISANRGAAVTKLAESEIDEMFELMSGLEAFAGELACERITPHEIAEIKALHYAMVACREREDLSGYYGYNQQIHDRINGAARNCALRQTYLSINRRLQAMRFKSNFHKSKRDHAVHDHEEMIKALESRDGKRLSAILRQHLLDKRDVVLVTLATARETPATGGR | not soluble |
| MSKNLLIELGLEELPAYVVTPSEKQLGERLATFLTENRLSFEDIQTFSTPRRLAVRVSGLADQQTDLTEDFKGPAKKIALDADGNFSKAAQGFVRGKGLTTDAIEFREVKGEEYVYVTKHEAGKPAKEVLLGVTEVLSAMTFPVSMHWANNSFEYIRPVHTLTVLLNDEALELDFLDIHSGRVSRGHRFLGTETTITSADSYEADLRSQFVIADAKERQEMIVEQIKTLEVEQGVQVDIDEDLLNEVLNLVEFPTAFMGSFEAKYLDVPEEVLVTSMKNHQRYFVVRDQAGHLMPNFVSVRNGNDQAIENVIKGNEKVLVARLEDGEFFWREDQKLQIADLVAKLTNVTFHEKIGSLAEHMDRTRVIAASLAKEANLSAEEVTAVDRAAQIYKFDLLTGMVGEFDELQGIMGEKYALLAGEDAAVATAIREHYLPDAAGGALPETKVGAVLALAAKLDTLLSFFSVGLIPSGSNDPYALRRATQGIVRILDHFGWRIPMDKLVDSLYDLSFDSLTYANKADVMNFIRARVDKMMGKAAPKDIREAILASSTFV | not soluble |
| MSLSKKIVIVGGVAGGASTAARLRRLDENNQIIMFERGPHVSFSNCCLPYYLSGKVENHEDLVLMTPEKFYSQYRIDARVYTEVVSINRKAKEVTVRNVVSGQEYTESYDKLVLSPGAKAIVPPIKGIEDVNVFTVRNVVDIAKLDSFIKDNNSKNISVIGGGFIGVEVAENLHEAGYNVTLIEAMDQIMKPFDYDMVQVLHKEMYDKGVNLIVGDKVSSFESGKVVLESGKKINSDAVVMAIGVAPETDLAREAGLEIGQTGAIKVNQNYLTNDKDIYAVGDAVEVYNSLTNSISRLPLAGPAQKQARAVADHIHGRPSRNSGYIGSSCVQIFDYNGASTGLTEGQIKAMNLSLNYDVVRVIPQDKVGLMPGSEPLHFKLIFEVPTGRILGAQAIGKGNADKRVDIIATLIKMGGTVEDLKDLELCYAPPFGTAKDVVNHAALVASNLLEGTFKQVYVHEVRDLVESGACIIDVREVSEYEAGHIKGAKNLPLSEIRDRLDEIPTDRPVYLHCRSAQRSYNACLALQHLGFDNIYNVSGGFMGISFYEYYNDKVQDREPIVTEYNFNEGHHHHHH | soluble |
| KVISPTYQASTQVLVHESDGEENSNLSDIQRNLQYSSTFQSIMKSTALMEEVKAELHLSESASSLKGKVVTSSENESEIINVAVQDHDPAKAAEIANTLVNKFEKEVDERMNVQGVHILSEAKASESPMIKPARLRNM | not soluble |
| MGSDKIHHHHHHLDDLSEFVDQVPLLDHHCHFLIDGKVPNRDDRLAQVSTEADKDYPLADTKNRLAYHGFLALAKEFALDANNPLAAMNDPGYATYNHRIFGHFHFKELLIDTGFVPDDPILDLDQTAELVGIPVKAIYRLETHAEDFMLEHDNFAAWWQAFSNDVKQAKAHGFVGFKSIAAYRVGLHLEPVNVIEAAAGFDTWKHSGEKRLTSKPLIDYMLYHVAPFIIAQDMPLQFHVGYGDADTDMYLGNPLLMRDYLKAFTKKGLKVVLLHCYPYHREAGYLASVFPNLYFDISLLDNLGPSGASRVFNEAVELAPYTRILFASDASTYPEMYGLAARQFKQALVAHFNQLPFVDLAQKKAWINAICWQTSAKLYHQERELRV | not soluble |
| MEKAYKILSVQENISHKKAKALIDSGLVSIGGKKLMVARKELPKNTHFSVQKVEKPSVIFEDENILALFKPPFIESYDLASFFKGWALLHRLDKETSGVVLLVKENSEFHLKAKKAFKDRAVKKEYLALTQGIIEEEREINAPILTFKTTKAFSKISKKGQEAVTIITPLKIINKKTLLKVGIKTGRTHQIRVHLKHINHPIIGDTLYNNEPSLAKRLMLHAHKIALLGYEFEAIAPKEFEILEHHHHHH | soluble |
| RPPLQEYVRKLLYKDLSKVTTEKVLRQMRKLPWQDQEVKDYVICCMINIWNVKYNSIHCVANLLAGLVLYQEDVGIHVVDGVLEDIRLGMEVNQPKFNQRRISSAKFLGELYNYRMVESAVIFRTLYSFTSFGVNPDGSPSSLDPPEHLFRIRLVCTILDTCGQYFDRGSSKRKLDCFLVYFQRYVWWKKSLEVWTKDHPFPIDIDYMISDTLELLRPKIKLCNSLEESIRQVQDLEREFLIKLGLVN | soluble |
| MGSDKIHHHHHHMRFMLYEFLKNNYKEAEPIFFSDIVIEGITKSAVNQQLKKLCDEGKLQKYENGIYYLPKKSRLKTNVGVNADMVARYKYVSRGGKVDGFYSGNTFANQLGISTQVPNKVEIVSNNMAAKIREIPIGKRTFIVRRPVVPVNEENVYVLQLLDLLKNLDMYLDESYDVAHDKVSQFVQIHGITKNDVDSYIREFPIAIFRYYYELRLDDVFA | not soluble |
